According to article PMC9277888, “The testis-specific E3 ubiquitin ligase RNF133 is required for fecundity in mice” (BMC Biology, 2022):
Like-named read-outs stand apart in the source and are kept apart here.

Legend:
[1] = target: T1, human HA-UBE2J1 (human, UniProt Q9Y385 1-318); test: co-IP; HEK293 cells co-transfected with FLAG-tagged E3 and HA-tagged E2; lysed by sonication in Pierce IP buffer (25 mM Tris-HCl pH 7.4, 150 mM NaCl, 1 mM EDTA, 1% NP-40, 5% glycerol); anti-HA magnetic beads, 4 C, 1 h; washed with IP buffer with 2 mM DTT; immunoblot with anti-FLAG; band intensities by ImageJ (IP lane to input lane)
T1 construct: E2 ubiquitin-conjugating enzyme UBE2J1, human, full-length open reading frame; also called pCAG-humanUBE2J1; source: HEK293 cells, transfected (pCAG1.1, Lipofectamine 3000), in lysate; not shown: HA, N-terminal, kept
T1 sequence (looked up): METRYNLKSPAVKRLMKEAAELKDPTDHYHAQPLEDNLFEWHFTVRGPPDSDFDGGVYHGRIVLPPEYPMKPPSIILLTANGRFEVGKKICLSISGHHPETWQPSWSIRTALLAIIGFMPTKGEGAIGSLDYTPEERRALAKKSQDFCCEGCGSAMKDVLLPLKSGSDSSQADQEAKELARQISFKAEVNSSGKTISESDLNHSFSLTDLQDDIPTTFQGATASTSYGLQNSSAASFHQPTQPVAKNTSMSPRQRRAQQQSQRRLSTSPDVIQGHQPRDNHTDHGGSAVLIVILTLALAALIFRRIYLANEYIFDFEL

[2] = target: T2, mouse HA-UBE2J1 (mouse, UniProt Q9JJZ4 1-318); test: as above; details: partners not purified
T2 construct: E2 ubiquitin-conjugating enzyme UBE2J1, mouse, full-length open reading frame; also called pCAG-mouseUbe2J1; source: HEK293 cells, transfected (pCAG1.1, Lipofectamine 3000), in lysate; not shown: HA, N-terminal, kept
T2 sequence (looked up): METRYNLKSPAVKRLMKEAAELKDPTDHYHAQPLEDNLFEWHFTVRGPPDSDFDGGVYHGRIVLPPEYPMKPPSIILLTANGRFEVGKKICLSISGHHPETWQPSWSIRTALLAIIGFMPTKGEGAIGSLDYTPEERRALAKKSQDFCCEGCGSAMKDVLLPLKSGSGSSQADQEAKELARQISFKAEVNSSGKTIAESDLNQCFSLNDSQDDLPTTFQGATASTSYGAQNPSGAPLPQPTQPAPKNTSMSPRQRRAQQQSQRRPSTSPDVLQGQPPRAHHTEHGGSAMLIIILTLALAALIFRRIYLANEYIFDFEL

Molecule: human RNF133-mutant-FLAG (RING finger domain deleted) (from UniProt Q8WVZ7 1-376) (enzyme)
- IP:input ratio (band intensity) [1]: 0.24

B1: human RNF133-FLAG (RING finger protein 133) (enzyme, UniProt Q8WVZ7 1-376, looked up)
chain: MHLLKVGTWRNNTASSWLMKFSVLWLVSQNCCRASVVWMAYMNISFHVGNHVLSELGETGVFGRSSTLKRVAGVIVPPEGKIQNACNPNTIFSRSKYSETWLALIERGGCTFTQKIKVATEKGASGVIIYNVPGTGNQVFPMFHQAFEDVVVVMIGNLKGTEIFHLIKKGVLITAVVEVGRKHIIWMNHYLVSFVIVTTATLAYFIFYHIHRLCLARIQNRRWQRLTTDLQNTFGQLQLRVVKEGDEEINPNGDSCVICFERYKPNDIVRILTCKHFFHKNCIDPWILPHGTCPICKCDILKVLGIQVVVENGTEPLQVLMSNELPETLSPSEEETNNEVSPAGTSDKVIHVEENPTSQNNDIQPHSVVEDVHPSP
notes: also called human RNF133-WT; RNF133 wild-type; source: HEK293 cells, transfected (pCAG1.1, Lipofectamine 3000), in lysate; not shown: FLAG, C-terminal, kept
- IP:input ratio (band intensity) ([1]; partners not purified): 1.74

B2: mouse RNF133-FLAG (RING finger protein 133) (enzyme, UniProt Q14B02 1-382, looked up)
chain: MNPLQTSTWQNQAPSFWLLRFSFIWLVSQKCCTASAVWTAYMNISFHVGNRMLSELGETGVFGRSSILKRVAGVVVPPEGKIQNACDPNTTFILPRNKEPWIALIERGGCAFTQKIKVASEHGARGVIIYNFPGTGNQVFPMSHQAFEDIVVVMIGNIKGMEILHLIRKGVHVTVMVEVGRKHVIWLNHYFVSFMIVTTATLAYFTFYHIRRLWVARIENRRWKRLTRELKKAFGQLQVRVLKEGDEEVNPNADSCVICFEAYKPNEIVRILTCKHFFHKNCIDPWILAHGTCPMCKCDILKALGIQMDIEDGTDSLQVLMSNELPGTLSPVEEETNYELPPARTSSKVTHVQEHPTSSANAGSQPPEAEETSHPSHGQQVL
notes: also called mouse RNF133-WT; pCAG-mouseRnf133; source: HEK293 cells, transfected (pCAG1.1, Lipofectamine 3000), in lysate; not shown: FLAG, C-terminal, kept
- IP:input ratio (band intensity) [2]: 3.95
